According to paper PMC10194908 (2023):

T1: Recombinant NS1 from DENV-3-Sri Lanka D3/H/IMTSSA-SRI/2000/1266 (dengue virus serotype 3 (Sri Lanka …, UniProt Q6YMS4 774-1125))
T1 chain: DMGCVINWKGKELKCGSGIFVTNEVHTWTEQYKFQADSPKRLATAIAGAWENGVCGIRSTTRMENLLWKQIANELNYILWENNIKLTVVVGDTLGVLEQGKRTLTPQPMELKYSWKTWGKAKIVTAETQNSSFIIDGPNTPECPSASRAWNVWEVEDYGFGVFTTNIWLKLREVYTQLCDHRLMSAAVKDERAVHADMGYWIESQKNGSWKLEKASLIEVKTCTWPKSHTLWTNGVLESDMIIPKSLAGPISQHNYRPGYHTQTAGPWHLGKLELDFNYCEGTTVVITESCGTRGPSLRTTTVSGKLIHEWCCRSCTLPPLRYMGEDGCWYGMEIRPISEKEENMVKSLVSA

T2: Recombinant NS1 from DENV-4-Dominica/814669/1981 (dengue virus serotype 4 …, UniProt P09866 775-1126)
T2 chain: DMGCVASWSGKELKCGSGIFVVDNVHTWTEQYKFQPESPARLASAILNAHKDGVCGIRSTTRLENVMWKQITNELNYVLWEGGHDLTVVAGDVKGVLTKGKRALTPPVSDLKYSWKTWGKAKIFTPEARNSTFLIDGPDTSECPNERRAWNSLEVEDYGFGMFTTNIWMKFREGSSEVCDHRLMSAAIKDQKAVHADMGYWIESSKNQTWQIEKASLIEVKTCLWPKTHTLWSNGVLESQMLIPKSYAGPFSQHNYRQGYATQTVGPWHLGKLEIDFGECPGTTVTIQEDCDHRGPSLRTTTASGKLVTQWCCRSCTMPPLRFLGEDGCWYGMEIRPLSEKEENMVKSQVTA

B1: A2 (antibody, V domains shown)
VH: QVQLQESGGGVVQPGRSLRLFCAASGFTFSAFSTYAIHWVRQAPGKGLEWVAVISYDANNKYYADSVKGRFTISRDNFKSTLFLQMNSLRAEDTAVYYCARDRSDSGYDSYYYYYGMDVWGQGTTVTVSS
VL: QSVVTQPPSVSAAPGQKVTISCSGSSSNIGRNYVSWYQHLPGTAPKLLIYDNNKRRSGIPDRFSGSKSDTTATLGITGLQTVDEADYYCGSWDNSLSAYVFGTGTKVTV
B2: D8 (antibody, V domains shown)
VH: QVQLQESGPGLVKPSETLPLTCTVSGGSISNNGFYWGWIRQPPGKGLEWIGNIYYRGSTYYNPSLNSRVTISVDTSKNQFSLQLNSVTAADTAVYYCARLGIQLWFAIDYWGQGTLVTVSS
VL: SVLTQPPAVSVALGQTVRITCQGDSLRSSYASWYQQKPGQAPVLIFYAKNNRPSGIPDRFSGSSSGNTASLTITGAQAEDEADYYCYSRDSSGNLWVFGGGTKLTVL
B3: D6 (antibody, V domains shown)
VH: EVQLVQSGGGLVQPGRSLRLSCAASGFTFQDYAMHWVRQAPGKGLEWVSGIGRDSGTIDYADSVKGRFTISRDNAKNSLYLQMNSLRAEDTALYYCAKISNGYRPDNWGQGTLVTVSS
VL: VLTQPPSVSVSPGQTARITCSGDVLAKRYARWFQQKPGQAPVVVIYKDSERPSGIPERLSGSSSGTTVTLTISGAQVEDEADYYCYCAADNNVVFGGGTKLTVL
B4: Recombinant NS1 from DENV-1-Nauru/Western Pacific/1974 (natural protein)
chain: DSGCVINWKGRELKCGSGIFVTNEVHTWTEQYKFQADSPKRLSAAIGKAWEEGVCGIRSATRLENIMWKQISNELNHILLENDMKFTVVVGDVSGILAQGKKMIRPQPMEHKYSWKSWGKAKIIGADVQNTTFIIDGPNTPECPDNQRAWNIWEVEDYGFGIFTTNIWLKLRDSYTQVCDHRLMSAAIKDSKAVHADMGYWIESEKNETWKLARASFIEVKTCIWPKSHTLWSNGVLESEMIIPKIYGGPISQHNYRPGYFTQTAGPWHLGKLELDFDLCEGTTVVVDEHCGNRGPSLRTTTVTGKTIHEWCCRSCTLPPLRFKGEDGCWYGMEIRPVKEKEENLVKSMVSA

Assays:
Test in all cases: BLI
[1] = biological target: B4
[2] = biological target: T1, Recombinant NS1 from DENV-3-Sri Lanka …
[3] = biological target: T3, Recombinant NS1 from DENV-2-Thailand/16681/84 (dengue virus serotype 2 …, UniProt P29990 776-1127)
T3 sequence (P29990 776-1127): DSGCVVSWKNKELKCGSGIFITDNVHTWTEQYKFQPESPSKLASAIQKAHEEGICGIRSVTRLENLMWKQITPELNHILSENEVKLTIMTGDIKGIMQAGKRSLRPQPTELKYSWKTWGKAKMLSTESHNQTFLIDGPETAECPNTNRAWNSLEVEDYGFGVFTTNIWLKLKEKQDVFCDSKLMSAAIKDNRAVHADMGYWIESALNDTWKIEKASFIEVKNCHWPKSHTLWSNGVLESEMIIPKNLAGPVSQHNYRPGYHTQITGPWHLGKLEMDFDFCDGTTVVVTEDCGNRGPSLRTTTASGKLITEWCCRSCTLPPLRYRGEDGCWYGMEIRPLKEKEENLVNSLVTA

[4] = biological target: T2, Recombinant NS1 from …
[5] = biological target: B4
[6] = biological target: T1, Recombinant NS1 from DENV-3-Sri Lanka …
[7] = biological target: T3, Recombinant NS1 from …; remark: listed apart in the source
[8] = biological target: T2, Recombinant NS1 from …
Den3 = biological target: Den3

Binder	koff [1] [s⁻¹]	koff [2] [s⁻¹]	koff [3] [s⁻¹]	koff [4] [s⁻¹]	Kd [5] [nM]	Kd [6] [nM]	Kd [7] [pM]	Kd [8] [nM]	Kd (Den3) [pM]	koff (Den3) [s⁻¹]
B1	0.000221	< 1e-07	< 1e-07	0.0016	1.61	< 0.001	< 1	4.41		
B2	9.79e-05	6.68e-05	< 1e-07	< 1e-07	1.06	0.569	< 1	< 0.001		
B3	0.000344		< 1e-07	5.9e-05	2.67		< 1	0.17		
B4									< 1	< 1e-07
